Test results reported in the supplement of paper PMC10567573.

B1: POLD4 (parent)
chain: ITDSYPVVKRREGPAGHSKGELAP
B2: ZNF263 (parent)
chain: PEASHLRFRRFRFQEAAGPREALS

Variants of: B1
Assay: protein stability index of a GFP-peptide fusion (GPS, HEK-293T) (PSI 1-6); higher = more stable
Conditions: c terminus: a fixed tail appended
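Further: lentivirally expressed fusions sorted by FACS into six bins by GFP to DsRed ratio, PSI derived from sequencing read proportions per bin multiplied by bin number.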

In order of falling protein stability index:
1. ITDSYPVVKRREGPAGHSPGELAP  4.07
2. ITDSYPVVKRREGPAGHDKGELAP  4.01
3. ITDSYPVVKRREGPAGHSDGELAP  3.96
4. ITDSYPVVKRREGPAGHGKGELAP  3.94
5. ITDSYPVVKRREGPAGHSKGEEAP  3.94
6. ITDSYPVVKRREGPAGHSGGELAP  3.89
7. ITDSYPVVKRREGPAGHSKGEQAP  3.89
8. ITDSYPVVKRREGPAGHSKGEDAP  3.81
9. ITDSYPVVKRREGPYGHSKGELAP  3.75
10. ITDSYPVVKRREGPAGHSKGEKAP  3.71
11. ITDSYPVVKRREGPAGHSKGELKP  3.65
12. ITDSYPVVKRREGPAGHQKGELAP  3.65
13. ITDSYPVVKRREGPAGHSTGELAP  3.62
14. ITDSYPVVKRREGPAGHSKGEAAP  3.62
15. ITDSYPVVKRREGPAGHSKGELSP  3.59
16. ITDSYPVVKRREGPAGHSHGELAP  3.56
17. ITDSYPVVKRREGPAGHSSGELAP  3.46
18. ITDSYPVVKRREGPKGHSKGELAP  3.45
19. ITDSYPVVKRREGPAGHIKGELAP  3.44
20. ITDSYPVVKRREGPAGHSKGELWP  3.43
21. ITDSYPVVKRREGPAGHSKGEVAP  3.42
22. ITDSYPVVKRREGPAGHSVGELAP  3.37
23. ITDSYPVVKRREGPAGHHKGELAP  3.35
24. ITDSYPVVKRREGPEGHSKGELAP  3.33
25. ITDSYPVVKRREGPLGHSKGELAP  3.32
26. ITDSYPVVKRREGPAGHSKGENAP  3.31
27. ITDSYPVVKRREGPAGHSKGEPAP  3.31
28. ITDSYPVVKRREGPAGHSEGELAP  3.28
29. ITDSYPVVKRREGPRGHSKGELAP  3.27
30. ITDSYPVVKRREGPAGHSKGEFAP  3.27
31. ITDSYPVVKRREGPAGHSKGESAP  3.27
32. ITDSYPVVKRREGPAGHEKGELAP  3.26
33. ITDSYPVVKRREGPAGHSKGECAP  3.26
34. ITDSYPVVKRREGPVGHSKGELAP  3.23
35. ITDSYPVVKRREGPAGHSKGELEP  3.21
36. ITDSYPVVKRREGPAGHSKGETAP  3.21
37. ITDSYPVVKRREGPAGHSKGEMAP  3.21
38. ITDSYPVVKRREGPAGHSKGELLP  3.2
39. ITDSYPVVKRREGPAGHSKGEHAP  3.2
40. ITDSYPVVKRREGPAGHCKGELAP  3.17
41. ITDSYPVVKRREGPAGHSQGELAP  3.16
42. ITDSYPVVKRREGPAGHRKGELAP  3.14
43. ITDSYPVVKRREGPAGHSKGEIAP  3.1
44. ITDSYPVVKRREGPMGHSKGELAP  3.08
45. ITDSYPVVKRREGPAGHSYGELAP  3.06
46. ITDSYPVVKRREGPAGHSKGELNP  3.05
47. ITDSYPVVKRREGPAGHSKGEWAP  3.04
48. ITDSYPVVKRREGPPGHSKGELAP  3.03
49. ITDSYPVVKRREGPAGHKKGELAP  3.02
50. ITDSYPVVKRREGPAGHAKGELAP  3.01
51. ITDSYPVVKRREGPAGHSKGELHP  3
52. ITDSYPVVKRREGPNGHSKGELAP  2.97
53. ITDSYPVVKRREGPQGHSKGELAP  2.94
54. ITDSYPVVKRREGPAGHFKGELAP  2.91
55. ITDSYPVVKRREGPAGHLKGELAP  2.91
56. ITDSYPVVKRREGPAGHSKGEGAP  2.91
57. ITDSYPVVKRREGPAGHSMGELAP  2.9
58. ITDSYPVVKRREGPAGHTKGELAP  2.87
59. ITDSYPVVKRREGPAGHPKGELAP  2.84
60. ITDSYPVVKRREGPAGHSLGELAP  2.81
61. ITDSYPVVKRREGPAGHSRGELAP  2.81
62. ITDSYPVVKRREGPAGHSKGELVP  2.8
63. ITDSYPVVKRREGPAGHWKGELAP  2.8
64. ITDSYPVVKRREGPSGHSKGELAP  2.8
65. ITDSYPVVKRREGPAGHSIGELAP  2.79
66. ITDSYPVVKRREGPHGHSKGELAP  2.75
67. ITDSYPVVKRREGPAGHSKGELDP  2.69
68. ITDSYPVVKRREGPAGHMKGELAP  2.68
69. ITDSYPVVKRREGPAGHSNGELAP  2.59
70. ITDSYPVVKRREGPIGHSKGELAP  2.58
71. ITDSYPVVKRREGPAGHSKGERAP  2.57
72. ITDSYPVVKRREGPAGHSKGEYAP  2.52
73. ITDSYPVVKRREGPAGHSFGELAP  2.48
74. ITDSYPVVKRREGPAGHYKGELAP  2.46
75. ITDSYPVVKRREGPFGHSKGELAP  2.41
76. ITDSYPVVKRREGPAGHNKGELAP  2.22
77. ITDSYPVVKRREGPTGHSKGELAP  2.22
78. ITDSYPVVKRREGPAGHVKGELAP  2.1

Variants of: B2
Assay: as above
Conditions: c terminus: a fixed tail appended

In order of falling protein stability index:
1. SEASHLRFRRFRFQEAAGPREALS  3.74
2. FEASHLRFRRFRFQEAAGPREALS  3.44
3. REASHLRFRRFRFQEAAGPREALS  2.97
4. EEASHLRFRRFRFQEAAGPREALS  2.97
5. GEASHLRFRRFRFQEAAGPREALS  2.8
6. QEASHLRFRRFRFQEAAGPREALS  2.79
7. MEASHLRFRRFRFQEAAGPREALS  2.73
8. IEASHLRFRRFRFQEAAGPREALS  2.71
9. DEASHLRFRRFRFQEAAGPREALS  2.65
10. LEASHLRFRRFRFQEAAGPREALS  2.53
11. TEASHLRFRRFRFQEAAGPREALS  2.44
12. KEASHLRFRRFRFQEAAGPREALS  2.38
13. HEASHLRFRRFRFQEAAGPREALS  2.16
14. NEASHLRFRRFRFQEAAGPREALS  2.13
15. CEASHLRFRRFRFQEAAGPREALS  1.96
16. AEASHLRFRRFRFQEAAGPREALS  1.75
